# Article doi:10.1101/2025.03.12.642038, “Structural, biophysical and biological analysis and characterisation of IRF4 DNA-binding domain mutations associated with multiple myeloma”
# T1: IRF4 DBD C99R (Homo sapiens, UniProt Q15306 20-132, C99R)
# T1 sequence: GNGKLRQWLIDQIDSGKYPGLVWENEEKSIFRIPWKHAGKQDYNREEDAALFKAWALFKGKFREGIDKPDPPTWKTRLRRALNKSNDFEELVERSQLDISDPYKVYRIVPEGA
# T2: IRF4 DBD C99S (Homo sapiens, UniProt Q15306 20-132, C99S)
# T2 sequence: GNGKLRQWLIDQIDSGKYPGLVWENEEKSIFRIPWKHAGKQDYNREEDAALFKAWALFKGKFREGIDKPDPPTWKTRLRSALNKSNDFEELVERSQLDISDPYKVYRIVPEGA
# T3: IRF4 DBD K59R (Homo sapiens, UniProt Q15306 20-132, K59R)
# T3 sequence: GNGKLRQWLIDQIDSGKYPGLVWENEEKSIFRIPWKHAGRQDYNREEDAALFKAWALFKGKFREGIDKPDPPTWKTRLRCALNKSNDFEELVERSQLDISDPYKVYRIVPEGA
# T4: IRF4 DBD D117A (Homo sapiens, UniProt Q15306 20-132, D117A)
# T4 sequence: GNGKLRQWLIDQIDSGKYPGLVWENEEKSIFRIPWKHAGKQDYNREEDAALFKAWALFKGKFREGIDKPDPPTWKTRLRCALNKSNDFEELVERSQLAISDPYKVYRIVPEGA
# T5: IRF4 DBD D117H (Homo sapiens, UniProt Q15306 20-132, D117H)
# T5 sequence: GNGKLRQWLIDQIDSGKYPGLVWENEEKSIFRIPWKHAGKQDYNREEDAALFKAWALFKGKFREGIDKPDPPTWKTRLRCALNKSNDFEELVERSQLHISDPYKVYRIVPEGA
# T6: IRF4 DBD K123R (Homo sapiens, UniProt Q15306 20-132, K123R)
# T6 sequence: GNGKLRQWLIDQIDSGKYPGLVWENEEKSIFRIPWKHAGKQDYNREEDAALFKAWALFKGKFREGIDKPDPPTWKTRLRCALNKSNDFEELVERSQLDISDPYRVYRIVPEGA
# T7: IRF4 DBD S114R (Homo sapiens, UniProt Q15306 20-132, S114R)
# T7 sequence: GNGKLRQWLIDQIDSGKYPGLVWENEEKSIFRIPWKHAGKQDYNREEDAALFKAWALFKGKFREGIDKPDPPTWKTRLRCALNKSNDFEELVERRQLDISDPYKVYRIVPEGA
# T8: IRF4 DBD T95K (Homo sapiens, UniProt Q15306 20-132, T95K)
# T8 sequence: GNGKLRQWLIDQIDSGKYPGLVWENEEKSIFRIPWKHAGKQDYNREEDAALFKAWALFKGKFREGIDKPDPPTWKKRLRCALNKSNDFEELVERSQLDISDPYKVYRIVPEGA
# B1: IRE hairpin (FAM) (structured_DNA)
# DNA: CTTGGTTTCACTTCCTGCGTTTTCGCAGGAAGTGAAACCAAG
# B2: IRE hairpin (biotin) (structured_DNA)
# DNA: CTTGGTTTCACTTCCTGCGTTTTCGCAGGAAGTGAAACCAAG
# Key:
# IRF4 DBD C99R = target: T1, IRF4 DBD C99R; test: FP; FP: PBS + 0.05% Tween20, 5 nM DNA, 1 h, room temperature; SPR: Biacore S200, SA chip, protein 0.1-4500 nM, running buffer not given in material; errors are SD; settings: protein: recombinant; tags: N-terminal His8-linker-His8-TEV, cleaved; label: 3' fluorescein (FAM); hairpin, TTTT loop
# IRF4 DBD C99S = target: T2, IRF4 DBD C99S; test: as above; settings: protein: recombinant; label: 3' fluorescein (FAM); hairpin, TTTT loop
# IRF4 DBD K59R [1] = target: T3, IRF4 DBD K59R; test: as above; settings: protein: recombinant; tags: N-terminal His8-linker-His8-TEV, cleaved; label: 3' fluorescein (FAM); hairpin, TTTT loop
# IRF4 DBD D117A [2] = target: T4, IRF4 DBD D117A; test: as above; settings: protein: recombinant; tags: N-terminal His8-linker-His8-TEV, cleaved; label: 3' fluorescein (FAM); hairpin, TTTT loop
# IRF4 DBD D117H = target: T5, IRF4 DBD D117H; test: as above; settings: protein: recombinant; tags: N-terminal His8-linker-His8-TEV, cleaved; label: 3' fluorescein (FAM); hairpin, TTTT loop
# IRF4 DBD K123R [3] = target: T6, IRF4 DBD K123R; test: as above; settings: protein: recombinant; tags: N-terminal His8-linker-His8-TEV, cleaved; label: 3' fluorescein (FAM); hairpin, TTTT loop
# IRF4 DBD K59R [4] = target: T3, IRF4 DBD K59R; test: SPR steady state; FP: PBS + 0.05% Tween20, 5 nM DNA, 1 h, room temperature; SPR: Biacore S200, SA chip, protein 0.1-4500 nM, running buffer not given in material; errors are SD; settings: protein: recombinant; tags: N-terminal His8-linker-His8-TEV, cleaved; label: 3' biotin; hairpin, TTTT loop
# IRF4 DBD D117A [5] = target: T4, IRF4 DBD D117A; test: as above; settings: protein: recombinant; tags: N-terminal His8-linker-His8-TEV, cleaved; label: 3' biotin; hairpin, TTTT loop
# IRF4 DBD S114R = target: T7, IRF4 DBD S114R; test: as above; settings: protein: recombinant; tags: N-terminal His8-linker-His8-TEV, cleaved; label: 3' biotin; hairpin, TTTT loop
# IRF4 DBD K123R [6] = target: T6, IRF4 DBD K123R; test: as above; settings: protein: recombinant; tags: N-terminal His8-linker-His8-TEV, cleaved; label: 3' biotin; hairpin, TTTT loop
# IRF4 DBD T95K = target: T8, IRF4 DBD T95K; test: as above; settings: protein: recombinant; tags: N-terminal His8-linker-His8-TEV, cleaved; label: 3' biotin; hairpin, TTTT loop
Binder,Kd (IRF4 DBD C99R),Kd (IRF4 DBD C99S),Kd (IRF4 DBD K59R [1]),Kd (IRF4 DBD D117A [2]),Kd (IRF4 DBD D117H),Kd (IRF4 DBD K123R [3]),Kd (IRF4 DBD K59R [4]),Kd (IRF4 DBD D117A [5]),Kd (IRF4 DBD S114R),Kd (IRF4 DBD K123R [6]),Kd (IRF4 DBD T95K)
B1,279 ± 286 nM,243 ± 238 nM,350 ± 275 nM,109 ± 31 nM,131 ± 28 nM,143 ± 34 nM,–,–,–,–,–
B2,–,–,–,–,–,–,275 ± 93 nM,301 ± 87 nM,213 ± 94 nM,491 ± 48 nM,594 ± 251 nM
